Data set [1] concerns the molecule itself. As to the kind of experiment: native-gel electrophoresis, self-association in aqueous solution.
Data set [2] concerns the target toll-like receptor-5 (hTLR5) expressed in 293T cells from p3xFlag-hTLR5 plasmid (human (printed only as hTLR5), UniProt O60602 21-858). The experiment in a line: cell-based or functional assay.

Where a chain is given by its changes, count along the chain named. Names and notes keep the numbering of the source.

toll-like receptor-5 (hTLR5) expressed in 293T cells from p3xFlag-hTLR5 plasmid, sequence (O60602 21-858): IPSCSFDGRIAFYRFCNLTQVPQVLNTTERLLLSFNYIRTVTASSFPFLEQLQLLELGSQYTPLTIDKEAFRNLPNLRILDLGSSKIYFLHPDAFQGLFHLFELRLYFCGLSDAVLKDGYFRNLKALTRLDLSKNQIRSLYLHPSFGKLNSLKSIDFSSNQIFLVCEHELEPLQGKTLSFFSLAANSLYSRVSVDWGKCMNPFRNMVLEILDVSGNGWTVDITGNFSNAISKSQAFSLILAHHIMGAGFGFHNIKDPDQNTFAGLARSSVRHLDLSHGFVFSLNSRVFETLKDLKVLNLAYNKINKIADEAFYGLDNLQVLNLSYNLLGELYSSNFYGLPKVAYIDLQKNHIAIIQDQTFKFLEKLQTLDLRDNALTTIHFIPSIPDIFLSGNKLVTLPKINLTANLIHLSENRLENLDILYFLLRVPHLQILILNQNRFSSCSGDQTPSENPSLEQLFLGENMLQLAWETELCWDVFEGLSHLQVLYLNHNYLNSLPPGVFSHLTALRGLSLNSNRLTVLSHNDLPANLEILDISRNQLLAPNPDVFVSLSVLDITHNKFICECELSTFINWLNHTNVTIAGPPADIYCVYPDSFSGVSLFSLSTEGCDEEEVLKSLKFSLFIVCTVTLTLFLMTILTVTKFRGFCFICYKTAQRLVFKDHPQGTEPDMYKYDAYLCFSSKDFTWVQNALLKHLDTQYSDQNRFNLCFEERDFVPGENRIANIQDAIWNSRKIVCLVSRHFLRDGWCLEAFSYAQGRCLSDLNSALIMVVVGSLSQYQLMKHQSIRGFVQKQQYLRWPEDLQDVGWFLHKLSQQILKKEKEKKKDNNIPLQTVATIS

B1: flagellin mutant (N153W) of V. vulnificus flagellin FlaB (ligand)
chain: MAVNVNTNVAAMTAQRYLNNANSAQQTSMERLSSGFKINSAKDDAAGLQISNRLNVQSRGLDVAVRNANDGISIAQTAEGAMNETTNILQRMRDLSLQSANGSNSKSERVAIQEEVTALNDELNRIAETTSFGGNKLLNGTYGTKAMQIGADWGEAVMLSLKDMRSDNVMMGGVSYQAEEGKDKNWNVAAGDNDLTIALTDSFGNEQEIEINAKAGDDIEELATYINGQTDLVKASVGEGGKLQIFAGNNKVQGEIAFSGSLAGELGLGEGKNVTVDTIDVTTVQGAQESVAIVDAALKYVDSHRAELGAFQNRFNHAISNLDNINENVNASKSRIKDTDFAKETTQLTKTQILSQASSSILAQAKQAPNSALSLLG
notes: Recombinant, from pTYB12 intein fusion in E. coli ER2566
Turning to B1, the binding result in data set [1] is “binds”. In data set [2], the “increase in TLR5-mediated NF-κB transcription activity (luciferase reporter, 293T cells, 20 ng/ml) compared to PBS control” value (“increase” for short) was roughly 24.5 fold.

B2: flagellin mutant (A151W) of V. vulnificus flagellin FlaB (ligand)
chain: B1 chain with A151W, W153N
notes: as for B1
Regarding B2, in data set [1], the binding result is given as “binds”. For the same molecule, in data set [2], the “increase” value was roughly 22.5 fold.

B3: flagellin mutant (D70A) of V. vulnificus flagellin FlaB (ligand)
chain: B1 chain with D70A, W153N
notes: Recombinant, expressed in E. coli ER2566 from pTYB12 as intein fusion, released with DTT
On to B3, for which the binding result in data set [1] is “binds”. The “increase” value in data set [2] was roughly 24.6 fold.

B4: flagellin mutant (R93A) of V. vulnificus flagellin FlaB (ligand)
chain: B1 chain with R93A, W153N
notes: as for B1
For B4, in data set [1], the binding result was “binds”. Further, the “increase” value in data set [2] was roughly 14 fold.

B5: flagellin mutant (N101A) of V. vulnificus flagellin FlaB (ligand)
chain: B1 chain with N101A, W153N
notes: as for B1
As to B5, the binding result in data set [1] was “binds”. Moreover, the “increase” value in data set [2] was roughly 22.6 fold.

B6: flagellin mutant (S103W) of V. vulnificus flagellin FlaB (ligand)
chain: B1 chain with S103W, W153N
notes: as for B1
B6: the binding result in data set [1] is recorded as “binds”. Moreover, the “increase” value in data set [2] was roughly 23.7 fold.

B7: flagellin mutant (V291W) of V. vulnificus flagellin FlaB (ligand)
chain: B1 chain with W153N, V291W
notes: as for B1
Take B7: the binding result in data set [1] is on record as “binds”. In addition, the “increase” value in data set [2] is roughly 16.6 fold.

B8: flagellin mutant (D70A/N135D) of V. vulnificus flagellin FlaB (ligand)
chain: B1 chain with D70A, N135D, W153N
notes: Recombinant, from pTYB12 intein fusion in E. coli ER2566; also called dual site-directed mutant flagellin
Turning to B8, in data set [1], the binding result is listed as “binds”. In addition, the “increase” value in data set [2] is roughly 14.9 fold.

B9: flagellin mutant (E108A) of V. vulnificus flagellin FlaB (ligand)
chain: B1 chain with E108A, W153N
notes: as for B1
Take B9: in data set [1], the binding result is on record as “binds”. For the same molecule, the “increase” value in data set [2] is roughly 21 fold.

B10: flagellin mutant (L97W) of V. vulnificus flagellin FlaB (ligand)
chain: B1 chain with L97W, W153N
notes: as for B1
Take B10: in data set [1], the binding result is “binds”. Moreover, the “increase” value in data set [2] was roughly 25 fold.

B11: flagellin mutant (N135D) of V. vulnificus flagellin FlaB (ligand)
chain: B1 chain with N135D, W153N
notes: as for B1
For B11, in data set [1], the binding result is “binds”. Besides, the “increase” value in data set [2] is roughly 21.7 fold.

The record behind these values is patent publication US20120201854A1 (INDUSTRY FOUNDATION OF CHONNAM NATIONAL UNIVERSITY, published 2012).
